This note sets out measurements from publication PMC11685497 (Nature Communications, 2024).

For experiment [1], the target named is wild-type soluble CD73 (ecto-5'-nucleotidase), recombinant (human). Nature of the experiment: cryo-EM structure.
Experiment [2] addresses T1, wild-type soluble CD73 (ecto-5'-nucleotidase), recombinant (Homo sapiens).
T1 chain: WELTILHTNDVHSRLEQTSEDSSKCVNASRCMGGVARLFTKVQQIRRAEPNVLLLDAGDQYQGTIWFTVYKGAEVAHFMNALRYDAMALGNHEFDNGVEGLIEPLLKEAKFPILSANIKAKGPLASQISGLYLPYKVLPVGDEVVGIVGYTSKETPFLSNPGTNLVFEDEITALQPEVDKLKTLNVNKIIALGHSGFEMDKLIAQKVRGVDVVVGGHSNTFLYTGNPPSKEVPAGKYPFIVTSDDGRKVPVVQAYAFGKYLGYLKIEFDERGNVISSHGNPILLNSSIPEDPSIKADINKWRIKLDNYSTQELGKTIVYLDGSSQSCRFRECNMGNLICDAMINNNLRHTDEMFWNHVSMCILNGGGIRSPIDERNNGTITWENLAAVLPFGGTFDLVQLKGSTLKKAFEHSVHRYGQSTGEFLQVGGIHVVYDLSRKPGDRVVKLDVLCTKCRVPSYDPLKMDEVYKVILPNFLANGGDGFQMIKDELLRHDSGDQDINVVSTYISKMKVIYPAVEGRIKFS
In words: HDX-MS.

The target in experiment [3] is T1, wild-type soluble CD73 …. In words: negative-stain EM.
The target of experiment [4] is human CD73, membrane-bound, on CHO-K1 cells (CHO-K1-huCD73-3F4) (Homo sapiens, UniProt P21589). In words: flow cytometry on cells.

“wild-type soluble CD73 (ecto-5'-nucleotidase), recombinant (enzyme)”: in experiment [1], the stoichiometry N came to 2.

B1: HB0039 Fab (Fab, V domains shown)
VH: QVQLVQSGAEVKKPGASVKLSCKASGYTFTSYWIHWVRQAPGQGLEWIGMIHPNSGSTYYNEKFKGRATLTVDKSTSTAYMELSSLRSEDTAVYYCARYYGSDYEWYFDVWGQGTTV
VL: IQMTQSPSSMSASVGDRVTITCKASQNVRTAVVWYQQKPGKAPKALIYLASNRHTGVPDRFSGSGSGTDFTLTISSLQPEDFATYFCLQHWNYPYTFGQGTKL
On to B1, for which, in experiment [2], the binding result was “binds”.

B2: HB0039 (humanized anti-human CD73 monoclonal IgG1, L234A/L235A) (antibody, V domains shown)
VH: QVQLVQSGAEVKKPGASVKLSCKASGYTFTSYWIHWVRQAPGQGLEWIGMIHPNSGSTYYNEKFKGRATLTVDKSTSTAYMELSSLRSEDTAVYYCARYYGSDYEWYFDVWGQGTTV
VL: IQMTQSPSSMSASVGDRVTITCKASQNVRTAVVWYQQKPGKAPKALIYLASNRHTGVPDRFSGSGSGTDFTLTISSLQPEDFATYFCLQHWNYPYTFGQGTKL
For the molecule B2, in experiment [3], the binding result was “binds”. This molecule registered an EC50 in experiment [4] of 0.24 nM.

B3: HB0038 (humanized anti-human CD73 monoclonal IgG1, L234A/L235A) (antibody, V domains shown)
VH: QVQLVESGGGLVKPGGSLRLSCAASGFTFSKYAMSWIRQAPGKGLEWVAEISSGGGYINYADSVKGRFTISRDNAKNSLYLQMNSLRAEDTAVYYCARAIYYYGSSYNYYAMDYWGQGTTVTVS
VL: DIQMTQSPSSLSASVGDRVTITCRASQDVGTAEAWYQQKPGKAPKLLIYWASTRHTGVPSRFSGSGSGTDFTLTISSLQPEDFATYYCQQYSSYPLTFGQGTKL
In turn, B3 registered an EC50 in experiment [4] of 11.8 nM. In experiment [2], the binding result is reported as “binds”.

B4: HB0038 Fab (Fab, V domains shown)
VH: QVQLVESGGGLVKPGGSLRLSCAASGFTFSKYAMSWIRQAPGKGLEWVAEISSGGGYINYADSVKGRFTISRDNAKNSLYLQMNSLRAEDTAVYYCARAIYYYGSSYNYYAMDYWGQGTTVTVS
VL: DIQMTQSPSSLSASVGDRVTITCRASQDVGTAEAWYQQKPGKAPKLLIYWASTRHTGVPSRFSGSGSGTDFTLTISSLQPEDFATYYCQQYSSYPLTFGQGTKL
Consider B4, for which the binding result in experiment [3] is reported as “binds”.

In general, stoichiometry N refers to the number of molecules, sites or subunits per partner or assembly. As usually defined, the EC50 is the concentration giving half of the maximal effect.
